Source: patent publication US20180333502A1

Biological target: activated human CD4 T cells (GITR) (human) (UniProt Q9Y5U5)
Assay: FACS binding to activated human CD4 T cells; isotype control

Sequence of activated human CD4 T cells (GITR) (human) (Q9Y5U5 26-241): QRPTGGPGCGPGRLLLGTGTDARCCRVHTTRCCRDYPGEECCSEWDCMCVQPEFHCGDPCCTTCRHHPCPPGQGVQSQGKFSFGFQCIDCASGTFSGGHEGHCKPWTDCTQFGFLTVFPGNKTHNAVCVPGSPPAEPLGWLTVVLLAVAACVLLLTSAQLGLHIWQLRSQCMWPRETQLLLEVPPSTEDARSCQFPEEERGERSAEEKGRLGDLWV

Row | EC50 [nM] | Substance
1 | 6.72 | unrelated hIgG2
2 | 132 | unrelated hIgG1
